Results published in patent US20240116985A1 (published 2024).
Starred links: 1 amine or outer side, 2 acyl side, 3 side chain; linkers in the order of their positions; H or OH if unused. Positions of bridges follow the written chain, without caps; N, C: chain ends. Non-standard residues stand in square brackets, D forms with d. Primed or numbered codes have the meaning given here. B5(10) = 2-amino-2-(pent-4-en-1-yl)hept-6-enoic acid, bis(4-pentenyl)glycine, stitching residue bearing both staples, C=CCCCC(CCCC=C)(N[*:1])C(=O)[*:2]; B5(4) = 2,2-bis(4-pentenyl)glycine = 2-amino-2-(pent-4-en-1-yl)hept-6-enoic acid (stitching residue), C=CCCCC(CCCC=C)(N[*:1])C(=O)[*:2]; B5(5) = 2,2-bis(4-pentenyl)glycine, 2-amino-2-(pent-4-en-1-yl)hept-6-enoic acid (stitching residue), C=CCCCC(CCCC=C)(N[*:1])C(=O)[*:2]; PyrS(3) = (S)-1-((allyloxy)carbonyl)-3-aminopyrrolidine-3-carboxylic acid, stapling residue, C=CCOC(=O)N1CC[C@@](N[*:1])(C(=O)[*:2])C1; B5(33) = 2-amino-2-(pent-4-en-1-yl)hept-6-enoic acid (bis-pentenylglycine, two olefin side chains), C=CCCCC(CCCC=C)(N[*:1])C(=O)[*:2]; PyrS″ = (S)-1-((allyloxy)carbonyl)-3-aminopyrrolidine-3-carboxylic acid (stapling residue), C=CCOC(=O)N1CC[C@@](N[*:1])(C(=O)[*:2])C1; SeN = (S)-5-(((allyloxy)carbonyl)(methyl)amino)-2-amino-2-methylpentanoic acid, C=CCOC(=O)N(C)CCC[C@](C)(N[*:1])C(=O)[*:2]; PyrS = (S)-1-((allyloxy)carbonyl)-3-aminopyrrolidine-3-carboxylic acid, C=CCOC(=O)N1CC[C@@](N[*:1])(C(=O)[*:2])C1; B5(3) = 2,2-bis(4-pentenyl)glycine (stitching residue), C=CCCCC(CCCC=C)(N[*:1])C(=O)[*:2]; B5 = 2-amino-2-(pent-4-en-1-yl)hept-6-enoic acid, C=CCCCC(CCCC=C)(N[*:1])C(=O)[*:2]; Phe(3-CF3) = N[C@@H](Cc1cccc(C(F)(F)F)c1)C(=O)O; Phe(4-CF3) = N[C@@H](Cc1ccc(C(F)(F)F)cc1)C(=O)O; 2Nal = N[C@@H](Cc1ccc2ccccc2c1)C(=O)O; hTyr = N[C@@H](CCc1ccc(O)cc1)C(=O)O; αAllylPro = C=CC[C@@]1(C(=O)O)CCCN1; d(αMeL) = CC(C)C[C@@](C)(N)C(=O)O; hPhe = N[C@@H](CCc1ccccc1)C(=O)O; 4Pal = N[C@@H](Cc1ccncc1)C(=O)O; R8 = C=CCCCCCC[C@@](C)(N)C(=O)O; S8 = C=CCCCCCC[C@](C)(N)C(=O)O

T1: full-length beta-Catenin (Uniprot ID P35222) (Homo sapiens (Human), UniProt P35222 2-781)
T1 construct: also called B-Catenin; bCat
T1 sequence: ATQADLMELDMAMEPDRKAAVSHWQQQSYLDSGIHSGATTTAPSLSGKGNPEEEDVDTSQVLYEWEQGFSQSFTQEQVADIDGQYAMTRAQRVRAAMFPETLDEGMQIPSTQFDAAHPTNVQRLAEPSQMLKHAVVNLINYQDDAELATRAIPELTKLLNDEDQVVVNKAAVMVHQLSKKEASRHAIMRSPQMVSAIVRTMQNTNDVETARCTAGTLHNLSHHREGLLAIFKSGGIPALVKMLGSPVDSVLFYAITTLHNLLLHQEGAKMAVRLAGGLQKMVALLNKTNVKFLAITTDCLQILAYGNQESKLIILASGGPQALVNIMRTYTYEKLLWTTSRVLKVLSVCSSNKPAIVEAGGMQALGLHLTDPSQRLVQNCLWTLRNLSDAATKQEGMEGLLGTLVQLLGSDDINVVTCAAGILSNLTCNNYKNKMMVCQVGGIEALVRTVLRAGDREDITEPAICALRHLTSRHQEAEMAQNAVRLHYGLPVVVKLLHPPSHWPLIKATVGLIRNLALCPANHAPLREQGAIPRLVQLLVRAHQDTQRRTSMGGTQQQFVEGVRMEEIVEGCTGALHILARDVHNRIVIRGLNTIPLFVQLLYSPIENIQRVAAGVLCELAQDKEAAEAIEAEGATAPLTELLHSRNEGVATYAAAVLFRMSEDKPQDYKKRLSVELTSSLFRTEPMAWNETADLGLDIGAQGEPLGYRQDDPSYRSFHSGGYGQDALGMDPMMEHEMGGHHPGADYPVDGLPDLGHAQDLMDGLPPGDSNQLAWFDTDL

T2: full-length beta-Catenin (Uniprot ID P35222) (Homo sapiens (Human), UniProt P35222 2-781)
T2 construct: The AlphaScreen assay used a Histidine (Nickel Chelate) detection kit, so a His tag is likely, but no tag is described; also called B-Catenin; bCat
T2 sequence: T1 sequence

B1: I-116 (peptide)
peptide: Ac-FDA[R8]D[2Nal]AAFV[PyrS″]FWQ-NH2
modifications: staple 4-11; also: later-eluting HPLC peak (staple isomer)
notes: Stapled peptide composition
B2: I-117 (peptide)
peptide: Ac-FDA[R8]DDAA[hPhe]V[PyrS″]FWQ-NH2
modifications: staple 4-11; also: earlier-eluting HPLC peak (staple isomer)
notes: Stapled peptide composition
B3: I-118 (peptide)
peptide: Ac-FDA[R8]DDAA[hPhe]V[PyrS(3)]FWQ-NH2
modifications: staple 4-11
notes: Stapled peptide composition
B4: I-119 (peptide)
peptide: Ac-FDA[R8]DDAA[hTyr]V[PyrS(3)]FWQ-NH2
modifications: staple 4-11
notes: Stapled peptide composition; same description as I-120, separate earlier-eluting HPLC peak (staple isomer)
B5: I-120 (peptide)
peptide: Ac-FDA[R8]DDAA[hTyr]V[PyrS(3)]FWQ-NH2
modifications: staple 4-11
notes: Stapled peptide composition
B6: I-124 (peptide)
peptide: XDAXDNAAFVXFWQ
modifications: not fully specified; as printed: Ac-PL3-Asp-Ala-B5-Asp-Asn-Ala-Ala-Phe-Val-S8-Phe-Trp-Gln-NH2; staples PL3(1)-B5(4) and B5(4)-S8(11)
notes: Stitched (two-staple) peptide composition
B7: I-126 (peptide)
peptide: Ac-[αAllylPro]DA[B5(33)]DQAAFV[S8]FWQ-NH2
modifications: staple 1-4, 4-11
notes: as for B6
B8: I-128 (peptide)
peptide: Ac-[αAllylPro]DA[B5(10)]DEAAFV[S8]FW-NH2
modifications: staple 1-4, 4-11
notes: as for B6
B9: I-130 (peptide)
peptide: Ac-[αAllylPro]DA[B5(4)]DEAAFV[SeN]FWQ-NH2
modifications: staple 1-4, 4-11
notes: as for B6
B10: I-214 (peptide)
peptide: Ac-[αAllylPro]DA[B5][4Pal]EAAFV[S8]FWQ-NH2
modifications: staple 1-4, 4-11
notes: Stapled (stitched) peptide composition; also called Ac-PL3-Asp-Ala-B5-4pyrA-Glu-Ala-Ala-Phe-Val-S8-Phe-Trp-Gln-NH2
B11: I-215 (peptide)
peptide: Ac-[αAllylPro]DA[B5]D[d(αMeL)]AAFV[S8]FWQ-NH2
modifications: staple 1-4, 4-11
notes: Stapled peptide composition; also called Ac-PL3-Asp-Ala-B5-Asp-DaMeL-Ala-Ala-Phe-Val-S8-Phe-Trp-Gln-NH2
B12: I-216 (peptide)
peptide: Ac-[αAllylPro]DA[B5(4)]D[d(αMeL)]AAFV[S8]FWQ-NH2
modifications: staple 1-4, 4-11
notes: as for B11
B13: I-236 (peptide)
peptide: Ac-[αAllylPro]DA[B5(3)]DDAA[Phe(3-CF3)]V[S8]FWQ-NH2
modifications: staple 1-4, 4-11
notes: Stapled peptide composition; also called Ac-PL3-Asp-Ala-B5-Asp-Asp-Ala-Ala-3F3MeF-Val-S8-Phe-Trp-Gln-NH2
B14: I-233 (peptide)
peptide: Ac-[αAllylPro]DA[B5(3)]DWAAFV[S8]FWQ-NH2
modifications: staple 1-4, 4-11
notes: Stapled peptide composition; also called Ac-PL3-Asp-Ala-B5-Asp-Trp-Ala-Ala-Phe-Val-S8-Phe-Trp-Gln-NH2
B15: I-244 (peptide)
peptide: Ac-[αAllylPro]DA[B5(5)]D[Phe(3-CF3)]AAFV[S8]FWQ-NH2
modifications: staple 1-4, 4-11
notes: Stapled peptide composition; also called Ac-PL3-Asp-Ala-B5-Asp-3F3MeF-Ala-Ala-Phe-Val-S8-Phe-Trp-Gln-NH2
B16: I-245 (peptide)
peptide: Ac-[αAllylPro]DA[B5(4)]D[Phe(3-CF3)]AAFV[S8]FWQ-NH2
modifications: staple 1-4, 4-11
notes: as for B15
B17: I-246 (peptide)
peptide: Ac-[αAllylPro]DA[B5(4)]D[Phe(4-CF3)]AAFV[S8]FWQ-NH2
modifications: staple 1-4, 4-11
notes: Stapled peptide composition; also called Ac-PL3-Asp-Ala-B5-Asp-4F3MeF-Ala-Ala-Phe-Val-S8-Phe-Trp-Gln-NH2
B18: I-247 (peptide)
peptide: Ac-[αAllylPro]DA[B5(4)]D[Phe(4-CF3)]AAFV[S8]FWQ-NH2
modifications: staple 1-4, 4-11
notes: as for B17
B19: I-221 (peptide)
peptide: Ac-FDA[R8]DDAAFT[PyrS]FWQ-NH2
modifications: staple 4-11
notes: Stapled peptide composition; also called Ac-Phe-Asp-Ala-R8-Asp-Asp-Ala-Ala-Phe-Thr-PyrS-Phe-Trp-Gln-NH2

Molecular target: T1, full-length beta-Catenin (Uniprot ID …)
Assay: Alphascreen competition; biotin-TCF4(10-53) probe with full-length beta-catenin
Method: (§1) Equal volume of the titrated peptide was added to the plate and incubated for 15 minutes at 20° C. Then 4 uL of donor and 4 uL acceptor beads at 10 ug/mL were added to the plate, for a 16 uL reaction pool and protected from light for 60 minutes at 20° C. prior to read. Reads were performed on a CLARIOstar plate reader (BMG Labtech) in duplicate, and data were fitted to a 1:1 binding model with hill slope using an in-house script. All provided concentrations are final concentrations.

Binder | EC50 [µM]
B1 | 3.64
B2 | ≥ 10
B3 | 4.36
B4 | 4.94
B5 | 4.55
B6 | 1.28
B7 | 1.48
B8 | 0.907
B9 | 0.797

Molecular target: T2, full-length beta-Catenin (Uniprot ID …)
Assay: AlphaScreen competition: full-length beta-catenin + biotin-TCF4(10-53) probe, peptide titrated
Method: as §1

Binder | EC50 [µM]
B10 | 7.21
B11 | ≥ 10
B12 | ≥ 10
B13 | 0.384
B14 | 5.9
B15 | 2.96
B16 | 2.96
B17 | 3.97
B18 | 3.97
B19 | 6.58
